Assays:
[1] = biological target: biotinylated HLA-A2-AviTag/MelanApeptide/β2 microglobulin complex; assay: flow cytometry of streptavidin M280 beads coated with 0.015 µg of the biotinylated complex, stained with FITC anti-HLA ABC
[2] = biological target: biotinylated HLA-A2-AviTag/MelanApeptide/β2 microglobulin complex; assay: flow cytometry of streptavidin M280 beads saturated with the biotinylated complex, stained with anti-HLA-ABC, legend of FIG. 4
[3] = biological target: biotinylated HLA-A2-AviTag/MelanApeptide/β2 microglobulin complex; assay: flow cytometry of streptavidin M280 beads coated with the biotinylated complex (saturating, 2 µg), stained with FITC anti-HLA ABC

Substance: streptavidin on M280 beads (Dynal) (from UniProt P22629 37-163)
- MFI [1]: 24.5 MFI
- MFI [2]: 305 MFI
- MFI [3]: 300 MFI
